Experimental findings from patent publication US20250376533A1 are described below.

Test [1] concerns the target human PD-L1 antigen (ACROBiosystems) (human) (UniProt Q9NZQ7). The experiment in a line: BLI (Gator), antibody captured on PA probe, human PD-L1 in solution.
For test [2] the target is unchanged. Kind of test: ELISA, coated antigen. (ELISA stands for enzyme-linked immunosorbent assay.)
The target is the same in test [3]. Kind of test: ELISA, coated antigen. This is another data set of the same source.
In test [4] the target is cynomolgus PD-L1 antigen (ACROBiosystems) (cynomolgus) (UniProt G7PSE7). Kind of test: ELISA, coated antigen.
Chain of cynomolgus PD-L1 antigen (ACROBiosystems) (cynomolgus) (G7PSE7 entry or part of it): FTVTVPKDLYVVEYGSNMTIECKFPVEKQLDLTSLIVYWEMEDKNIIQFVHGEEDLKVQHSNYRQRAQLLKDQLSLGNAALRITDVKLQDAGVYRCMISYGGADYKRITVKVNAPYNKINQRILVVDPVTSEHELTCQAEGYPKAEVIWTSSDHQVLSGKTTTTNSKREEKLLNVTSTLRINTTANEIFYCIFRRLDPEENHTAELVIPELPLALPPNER
Test [5] concerns the target cynomolgus CD40 antigen (ACROBiosystems) (cynomolgus) (UniProt G7PG38). The experiment in a line: ELISA, coated antigen.
Test [6] addresses human CD40 antigen (ACROBiosystems) (human) (UniProt P25942). Kind of test: ELISA, coated antigen.
Test [7] has as its target cynomolgus CD40 antigen (ACROBiosystems) (cynomolgus) (UniProt G7PG38). The experiment in a line: ELISA, coated antigen. The source holds these as a separate data set.
The target in test [8] is human CD40 antigen (ACROBiosystems) (human) (UniProt P25942). Kind of test: ELISA, coated antigen. The source holds these as a separate data set.
Chain of human CD40 antigen (ACROBiosystems) (human) (P25942 21-193 limits assumed): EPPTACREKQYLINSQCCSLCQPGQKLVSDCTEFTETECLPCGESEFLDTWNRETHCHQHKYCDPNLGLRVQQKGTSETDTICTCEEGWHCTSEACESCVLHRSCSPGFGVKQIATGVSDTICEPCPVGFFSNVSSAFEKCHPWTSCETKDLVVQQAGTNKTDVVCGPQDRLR
In test [9] the target is CD40 on HEK-Blue CD40L cells (InvivoGen) (UniProt P25942). The experiment in a line: cell-based or functional assay.
Chain of CD40 on HEK-Blue CD40L cells (InvivoGen) (P25942 21-277 limits assumed): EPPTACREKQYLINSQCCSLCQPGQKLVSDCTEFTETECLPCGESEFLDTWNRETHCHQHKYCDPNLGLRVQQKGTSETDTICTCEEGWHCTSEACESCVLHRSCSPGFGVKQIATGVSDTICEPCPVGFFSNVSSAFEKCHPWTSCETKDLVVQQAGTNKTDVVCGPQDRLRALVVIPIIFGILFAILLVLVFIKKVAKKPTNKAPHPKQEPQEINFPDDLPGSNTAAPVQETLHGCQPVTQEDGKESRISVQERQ

Where two headings read alike, the source gives them in different places.

As usually defined, the koff is the first-order rate constant of dissociation. Low values mean slow dissociation, high ones fast dissociation. As a reminder, the EC50 is the midpoint of the concentration-response curve. A lower EC50 goes with greater potency.

Chain of human PD-L1 antigen (ACROBiosystems) (human) (Q9NZQ7 19-238 limits assumed): as the sequence (G7PSE7 entry or part of it) above, with T33A, S34A, N62S, Q68R, R82Q, L173F, A185T, I192T, L215H counted along it
Chain of control CD40 monoclonal antibody CP-870893 (IMGT database ID 10523) (VH): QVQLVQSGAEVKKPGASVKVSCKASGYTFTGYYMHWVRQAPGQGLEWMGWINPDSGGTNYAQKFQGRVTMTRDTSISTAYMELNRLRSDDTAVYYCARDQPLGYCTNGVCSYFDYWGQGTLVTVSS
Chain of control CD40 monoclonal antibody CP-870893 (IMGT database ID 10523) (VL): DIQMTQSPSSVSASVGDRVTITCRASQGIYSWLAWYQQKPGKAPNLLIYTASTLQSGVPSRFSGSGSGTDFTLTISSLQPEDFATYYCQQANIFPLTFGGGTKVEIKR
Chain of cynomolgus CD40 antigen (ACROBiosystems) (cynomolgus) (G7PG38 entry or part of it): as the sequence (P25942 21-193 limits assumed) above, with G43S, H56R, R70Q, W89L, A95S, L101P, S106L, H142R, L172Q counted along it

“control PD-L1 monoclonal antibody Durvalumab (IMGT database ID 10010)” yielded a koff in test [1] of 0.00265 s⁻¹. In addition, the EC50 amounted to 0.012 nM in test [2], 0.014 nM in [3] and 0.017 nM in [4].

For the substance “control CD40 monoclonal antibody CP-870893 (IMGT database ID 10523)”, the EC50 amounted to 0.016 nM in test [5], 0.016 nM in [6], 0.018 nM in test [7] and 0.018 nM in test [8]. Besides, in test [9], the CD40 agonistic activity (A)/(B) Ratio, EC50 without over with CHO/PD-L1 worked out at 0.9. The substance also displayed a CD40 agonistic activity EC50 (nM) with CHO/PD-L1 (B), SEAP reporter in test [9] of 0.123 nM. Further, the CD40 agonistic activity EC50 (nM) without CHO/PD-L1 (A), SEAP reporter in test [9] was 0.109 nM.
